Experimental data from patent US20260242478A1 (published 2026).
Where no end group is shown, it is not given here.

Legend:
PSMA Fab [1] = target: T1, PSMA Fab (biotinylated (site not stated)); assay: clonal phage ELISA on biotinylated PSMA Fab captured on neutravidin plates, anti-M13-HRP detection;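 further: crude clonal phage supernatants added to wells preincubated with PSMA antigen or with blocking buffer only (no wash between), briefly incubated, then washed before detecting bound phage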
T1 construct: Biotinylated PSMA Fab captured on neutravidin coated plates in the phage ELISA; also called anti-PSMA Fab; 006 PSMA Fab

PSMA Fab [2] = target: T1, PSMA Fab; assay: clonal phage ELISA on captured PSMA Fab pre-incubated with PSMA antigen as competitor, anti-M13-HRP detection;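 further: wells blocked with buffer plus PSMA antigen before phage addition, with blocking buffer alone as the no-competitor control, bound phage detected after washing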
Experimental: (§1) Clonal phage were harvested as crude supernatants and screened via standard ELISAs. […] Prior to the addition of clonal phage. wells were incubated with blocking buffer and PSMA antigen or blocking buffer alone. Without washing or aspirating, clonal phage supernatants were then added to the wells and incubated for a short time. Wells were then washed followed by detection of bound phage using a horse radish conjugated anti-M13 antibody.

PSMA Fab (006 PSMA Fab) [3] = target: T2, PSMA Fab (006 PSMA Fab) (biotinylated (site not stated)); assay: clonal phage ELISA on captured PSMA Fab pre-incubated with PSMA antigen as competitor;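 further: crude clonal phage supernatants added to wells without washing away the PSMA competitor, bound phage detected by HRP-conjugated anti-M13 antibody, reference wells received blocking buffer only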
T2 construct: In the clonal phage ELISA the biotinylated PSMA Fab was captured on neutravidin coated plates; also called Anti-PSMA Fab

PSMA Fab (006 PSMA Fab) [4] = target: T2, PSMA Fab (006 PSMA Fab); assay: clonal phage ELISA on biotinylated PSMA Fab captured on neutravidin, anti-M13 HRP detection, no PSMA
Experimental: as §1

| Binder | Phage binding ELISA signal, Anti-PSMA Fab (PSMA Fab [1]) | Phage binding ELISA signal, Anti-PSMA Fab with PSMA antigen (PSMA Fab [2]) | Phage binding ELISA signal, Anti-PSMA Fab with PSMA antigen (PSMA Fab (006 PSMA Fab) [3]) | Phage binding ELISA signal, Anti-PSMA Fab (PSMA Fab (006 PSMA Fab) [4]) |
| --- | --- | --- | --- | --- |
| NGALCKPVWMCQGF [Phage-3383] | 1.81 | 0.0702 |  |  |
| VEPLCRPFWMCVGF [Phage-3382] | 1.81 | 0.127 |  |  |
| DFAMCRPAWMCGGF (cysteine pairing not given here; also: fused to pIII of bacteriophage) [Phage-3372] |  |  | 0.0683 | 1.81 |
| LSIKCVPDWMCTGF [Phage-3370] |  |  | 0.09 | 1.81 |
| PHAICKPAWMCVGL [Phage-3371] |  |  | 0.0913 | 1.81 |
| QEIYCVPEWMCSWF [Phage-3375] |  |  | 0.0642 | 1.81 |
| IDKMCVPSWMCWGF [Phage-3374] |  |  | 0.0876 | 1.81 |
| EMRYCVPRWMCEGF [Phage-3381] | 1.81 | 0.095 |  |  |
| GHPICVPSWMCEGF [Phage-3373] |  |  | 0.0862 | 1.81 |
| IAVMCKPEWMCVGF [Phage-3368] |  |  | 0.0964 | 1.82 |
| DVRLCRPSWMCSGF [Phage-3378] | 1.81 | 0.0682 |  |  |
| HDLRCVPEWMCYGL [Phage-3377] |  |  | 0.0734 | 1.81 |
| QVPMCKPMWMCAGF (cysteine pairing not given here; also: fused to pIII of bacteriophage) [Phage-3379] | 1.81 | 0.0921 |  |  |
| HTPICVPVWMCAGF (cysteine pairing not given here; also: fused to pIII of bacteriophage) [Phage-3369] |  |  | 0.0746 | 1.82 |
| AEVRCVPQWMCFGL [Phage-3380] | 1.81 | 0.0952 |  |  |
| EYIRCVPSWMCLDL [Phage-3376] |  |  | 0.0615 | 1.81 |
